# Literature values as cited in article PMC6814268.
# Legend:
# [1] = target: CEACAM1 IgV (Homo sapiens) (UniProt P13688)
# [2] = target: CEACAM5 IgV (Homo sapiens) (UniProt P06731)
Substance,Kd [1] [nM],Kd [2] [nM]
CEACAM1 IgV (from UniProt P13688),450,
CEACAM5 IgV (from UniProt P06731),,800
